Test results published in publication PMC4058633 (Nature protocols, 2013).

Target: the molecule itself
Experiment: native MS

B1: pentameric ligand-gated ion channel of Erwinia chrysanthemi (ELIC) (natural protein)
chain: APADNAADARPVDVSVSIFINKIYGVNTLEQTYKVDGYIVAQWTGKPRKTPGDKPLIVENTQIERWINNGLWVPALEFINVVGSPDTGNKRLMLFPDGRVIYNARFLGSFSNDMDFRLFPFDRQQFVLELEPFSYNNQQLRFSDIQVYTENIDNEEIDEWWIRKASTHISDIRYDHLSSVQPNQNEFSRITVRIDAVRNPSYYLWSFILPLGLIIAASWSVFWLESFSERLQTSFTLMLTVVAYAFYTSNILPRLPYTTVIDQMIIAGYGSIFAAILLIIFAHHRQAMGVEDDLLIQRCRLAFPLGFLAIGCVLVIRGITL
In the case of B1, the “stoichiometry N” value is reported as 5.
